Experimental findings from paper PMC3479641 (Structure (London, England : 1993), 2012) are described below.

In this assay the target is T1, Cas5d from B. halodurans, His6-tagged, co-expressed with Csd1, Csd2 and pre-crRNA (B. halodurans, UniProt Q9KFY3 1-236).
T1 sequence: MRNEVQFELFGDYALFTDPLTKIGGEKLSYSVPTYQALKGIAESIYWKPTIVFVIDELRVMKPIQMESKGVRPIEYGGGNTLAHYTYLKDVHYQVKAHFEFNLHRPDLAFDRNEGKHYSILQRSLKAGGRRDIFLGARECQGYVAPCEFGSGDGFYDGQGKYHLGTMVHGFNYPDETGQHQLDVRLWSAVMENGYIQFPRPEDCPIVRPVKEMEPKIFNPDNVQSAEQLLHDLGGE
The experiment in a line: SEC. In general terms: In gel filtration, larger molecules generally elute earlier.

B1: Csd2 from B. halodurans, Strep-II-tagged, co-expressed with Cas5d, Csd1 and pre-crRNA (natural protein, UniProt Q9KFY1 1-283, looked up)
chain: MTILDHKIDFAVILSVTKANPNGDPLNGNRPRQNYDGHGEISDVAIKRKIRNRLLDMEEPIFVQSDDRKADSFKSLRDRADSNPELAKMLKAKNASVDEFAKIACQEWMDVRSFGQVFAFKGSNLSVGVRGPVSIHTATSIDPIDIVSTQITKSVNSVTGDKRSSDTMGMKHRVDFGVYVFKGSINTQLAEKTGFTNEDAEKIKRALITLFENDSSSARPDGSMEVHKVYWWEHSSKLGQYSSAKVHRSLKIESKTDTPKSFDDYAVELYELDGLGVEVIDGQ
A word on the stoichiometry N: it is a count of units in the complex or per binding partner. On to B1, for which the “stoichiometry N” value was ~6 copies in the complex (with two copies of Cas5d and one copy of Csd1).

B2: Csd1 from B. halodurans, co-expressed with Cas5d, Csd2 and pre-crRNA (natural protein, UniProt Q9KFY2 1-627, looked up)
chain: MSWLLHLYETYEANLDQVGKTVKKGEDREYTLLPISHTTQNAHIEVTLDEDGDFLRAKALTKESTLIPCTEEAASRSGSKVAPYPLHDKLSYVAGDFVKYGGKIKNQDDAPFDTYIKNLGEWANSPYATEKVKCIYTYLKKGRLIEDLVDAGVLKLDENQQLIEKWEKRYEELLGEKPAIFSSGATDQASAFVRFNVFHPESIDDVWKDKEMFDSFISFYNDKLGEEDICFVTGNRLPSTERHANKIRHAADKAKLISANDNSGFTFRGRFKTSREAVGISYEVSQKAHNALKWLIHRQSKSIDDRVFLVWSNDNSLVPNPDEDAVDIMKHANRELERDPDTGQIFAGEVKKAIGGYRSDLNYQPEVHILVLDSATTGRMAVLYYRSLNKELYLNRLEAWHDSCAWEHRYRRDEKEFISFYGAPATKDIAFAAYGPRASEKVIKDLMERMLPCIVDGRRVPKDIVRSAFQRASNPVSMERWEWEKTLSITCALIRKMHIEQKEEWGVPLDKSSTDRSYLFGRLLAVADVLERGALGKDETRATNAIRYMNSYSKNPGRTWKTIQESLQPYQAKLGTKATYLSKLVDEIGDQFEPGDFNNNPLTEQYLLGFYSQRRELYKKKEEETNQ
Take B2: the “stoichiometry N” value is ~1 copies in the complex (with two copies of Cas5d and six copies of Csd2).
